Results reported in patent US20210246166A1 (Bayer, published 2021).
Numbered stars: 1 amine (or outer) side, 2 acyl side, 3 side chain; on linkers, the order of the positions; unused ones are H or OH. Bridge positions count the residues as written; N and C are the ends. Square brackets hold non-standard residues; d marks the D form. Primed or numbered codes have the meaning given here. Ends that are not written are not given here. * marks the point of attachment. Phe(2,5-F2) = 2,5-difluorophenylalanine, O=C([C@H](Cc1cc(F)ccc1F)N[*:1])[*:2]; X12 = (S)‑(trifluoromethyl)‑L‑cysteine, O=C([C@H](CSC(F)(F)F)N[*:1])[*:2]; Tranexamic″ = tranexamic acid, NC[C@H]1CC[C@@H](C(=O)*)CC1; Oic = O=C(O)[C@@H]1C[C@@H]2CCCC[C@@H]2N1; tBuAla = CC(C)(C)C[C@H](N)C(=O)O; Chg = N[C@H](C(=O)O)C1CCCCC1; Pen = CC(C)(S)[C@H](N)C(=O)O; ΔPro = O=C(O)[C@@H]1C=CCN1; NMeC = CN[C@@H](CS)C(=O)O; Orn = NCCC[C@H](N)C(=O)O; Abu = CC[C@H](N)C(=O)O; PEG2 = NCCOCCOCCC(=O)O; Sar = CNCC(=O)O

T1: Recombinant human MASP1 enzyme (fragment corresponding to amino acids 297-699, C-terminal His Tag) (human, UniProt P48740 297-699)
T1 sequence: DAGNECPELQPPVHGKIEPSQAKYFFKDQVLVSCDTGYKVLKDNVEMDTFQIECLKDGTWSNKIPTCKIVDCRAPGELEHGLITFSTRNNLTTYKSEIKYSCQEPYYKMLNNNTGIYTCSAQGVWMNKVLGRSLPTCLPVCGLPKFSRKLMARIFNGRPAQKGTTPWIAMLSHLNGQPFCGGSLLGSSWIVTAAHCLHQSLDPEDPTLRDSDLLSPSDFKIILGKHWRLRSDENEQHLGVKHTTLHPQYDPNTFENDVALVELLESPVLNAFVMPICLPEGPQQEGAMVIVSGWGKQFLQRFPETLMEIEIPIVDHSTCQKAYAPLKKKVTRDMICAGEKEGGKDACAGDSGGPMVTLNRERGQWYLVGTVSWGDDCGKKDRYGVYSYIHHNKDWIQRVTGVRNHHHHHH

B1: AIC+SRSL-(L-dehydroproline)-(Oic)-I-(Pen)+IPD-OH (peptide)
peptide: AICSRSL[ΔPro][Oic]I[Pen]IPD-OH
modifications: disulfide 3-11; N-terminus assumed
SMILES: CC[C@H](C)[C@H](NC(=O)[C@H](C)N)C(=O)N[C@H]1CSSC(C)(C)[C@@H](C(=O)N[C@H](C(=O)N2CCC[C@H]2C(=O)N[C@@H](CC(=O)O)C(=O)O)[C@@H](C)CC)NC(=O)[C@H]([C@@H](C)CC)NC(=O)[C@@H]2C[C@@H]3CCCC[C@@H]3N2C(=O)[C@@H]2C=CCN2C(=O)[C@H](CC(C)C)NC(=O)[C@H](CO)NC(=O)[C@H](CCCNC(=N)N)NC(=O)[C@H](CO)NC1=O
B2: (Abu)-IC+SRSLPPIC+IPD-NH2 (peptide)
peptide: [Abu]ICSRSLPPICIPD-NH2
modifications: disulfide 3-11; N-terminus assumed
SMILES: CC[C@H](N)C(=O)N[C@H](C(=O)N[C@H]1CSSC[C@@H](C(=O)N[C@H](C(=O)N2CCC[C@H]2C(=O)N[C@@H](CC(=O)O)C(N)=O)[C@@H](C)CC)NC(=O)[C@H]([C@@H](C)CC)NC(=O)[C@@H]2CCCN2C(=O)[C@@H]2CCCN2C(=O)[C@H](CC(C)C)NC(=O)[C@H](CO)NC(=O)[C@H](CCCNC(=N)N)NC(=O)[C@H](CO)NC1=O)[C@@H](C)CC
B3: AIC+SRSLP-(Oic)-IC+IPD-NH2 (peptide)
peptide: AICSRSLP[Oic]ICIPD-NH2
modifications: disulfide 3-11; N-terminus assumed
SMILES: CC[C@H](C)[C@H](NC(=O)[C@H](C)N)C(=O)N[C@H]1CSSC[C@@H](C(=O)N[C@H](C(=O)N2CCC[C@H]2C(=O)N[C@@H](CC(=O)O)C(N)=O)[C@@H](C)CC)NC(=O)[C@H]([C@@H](C)CC)NC(=O)[C@@H]2C[C@@H]3CCCC[C@@H]3N2C(=O)[C@@H]2CCCN2C(=O)[C@H](CC(C)C)NC(=O)[C@H](CO)NC(=O)[C@H](CCCNC(=N)N)NC(=O)[C@H](CO)NC1=O
B4: ((N-Me)G)-IC+SRSLPPI-((N-Me)C)+IPD-OH (peptide)
peptide: [Sar]ICSRSLPPI[NMeC]IPD-OH
modifications: disulfide 3-11; N-terminus assumed
SMILES: CC[C@H](C)[C@H](NC(=O)CNC)C(=O)N[C@H]1CSSC[C@@H](C(=O)N[C@H](C(=O)N2CCC[C@H]2C(=O)N[C@@H](CC(=O)O)C(=O)O)[C@@H](C)CC)N(C)C(=O)[C@H]([C@@H](C)CC)NC(=O)[C@@H]2CCCN2C(=O)[C@@H]2CCCN2C(=O)[C@H](CC(C)C)NC(=O)[C@H](CO)NC(=O)[C@H](CCCNC(=N)N)NC(=O)[C@H](CO)NC1=O
B5: WIC+SRS-((tBu)A)-PPI-((N-Me)C)+I-NH2 (peptide)
peptide: WICSRS[tBuAla]PPI[NMeC]I-NH2
modifications: disulfide 3-11; N-terminus assumed
SMILES: CC[C@H](C)[C@H](NC(=O)[C@@H]1CSSC[C@H](NC(=O)[C@@H](NC(=O)[C@@H](N)Cc2c[nH]c3ccccc23)[C@@H](C)CC)C(=O)N[C@@H](CO)C(=O)N[C@@H](CCCNC(=N)N)C(=O)N[C@@H](CO)C(=O)N[C@@H](CC(C)(C)C)C(=O)N2CCC[C@H]2C(=O)N2CCC[C@H]2C(=O)N[C@@H]([C@@H](C)CC)C(=O)N1C)C(N)=O
B6: AIC+SRS-((tBu)A)-P-(Oic)-I-C+IPD-NH2 (peptide)
peptide: AICSRS[tBuAla]P[Oic]ICIPD-NH2
modifications: disulfide 3-11; N-terminus assumed
SMILES: CC[C@H](C)[C@H](NC(=O)[C@H](C)N)C(=O)N[C@H]1CSSC[C@@H](C(=O)N[C@H](C(=O)N2CCC[C@H]2C(=O)N[C@@H](CC(=O)O)C(N)=O)[C@@H](C)CC)NC(=O)[C@H]([C@@H](C)CC)NC(=O)[C@@H]2C[C@@H]3CCCC[C@@H]3N2C(=O)[C@@H]2CCCN2C(=O)[C@H](CC(C)(C)C)NC(=O)[C@H](CO)NC(=O)[C@H](CCCNC(=N)N)NC(=O)[C@H](CO)NC1=O
B7: AIC+SRSLPP-(Chg)-C+IPD-OH (peptide)
peptide: AICSRSLPP[Chg]CIPD-OH
modifications: disulfide 3-11; N-terminus assumed
SMILES: CC[C@H](C)[C@H](NC(=O)[C@H](C)N)C(=O)N[C@H]1CSSC[C@@H](C(=O)N[C@H](C(=O)N2CCC[C@H]2C(=O)N[C@@H](CC(=O)O)C(=O)O)[C@@H](C)CC)NC(=O)[C@H](C2CCCCC2)NC(=O)[C@@H]2CCCN2C(=O)[C@@H]2CCCN2C(=O)[C@H](CC(C)C)NC(=O)[C@H](CO)NC(=O)[C@H](CCCNC(=N)N)NC(=O)[C@H](CO)NC1=O
B8: AIC+SRS-((tBu)A)-P-(Oic)-I-((N-Me)C)+IPD-OH (peptide)
peptide: AICSRS[tBuAla]P[Oic]I[NMeC]IPD-OH
modifications: disulfide 3-11; N-terminus assumed
SMILES: CC[C@H](C)[C@H](NC(=O)[C@H](C)N)C(=O)N[C@H]1CSSC[C@@H](C(=O)N[C@H](C(=O)N2CCC[C@H]2C(=O)N[C@@H](CC(=O)O)C(=O)O)[C@@H](C)CC)N(C)C(=O)[C@H]([C@@H](C)CC)NC(=O)[C@@H]2C[C@@H]3CCCC[C@@H]3N2C(=O)[C@@H]2CCCN2C(=O)[C@H](CC(C)(C)C)NC(=O)[C@H](CO)NC(=O)[C@H](CCCNC(=N)N)NC(=O)[C@H](CO)NC1=O
B9: (Orn)-IC+SRSLPP-(Chg)-C+IPD-OH (peptide)
peptide: [Orn]ICSRSLPP[Chg]CIPD-OH
modifications: disulfide 3-11; N-terminus assumed
SMILES: CC[C@H](C)[C@H](NC(=O)[C@@H](N)CCCN)C(=O)N[C@H]1CSSC[C@@H](C(=O)N[C@H](C(=O)N2CCC[C@H]2C(=O)N[C@@H](CC(=O)O)C(=O)O)[C@@H](C)CC)NC(=O)[C@H](C2CCCCC2)NC(=O)[C@@H]2CCCN2C(=O)[C@@H]2CCCN2C(=O)[C@H](CC(C)C)NC(=O)[C@H](CO)NC(=O)[C@H](CCCNC(=N)N)NC(=O)[C@H](CO)NC1=O
B10: AIC+SRS-((2,5-Difluoro)F)-PPI-((N-Me)C)+IPD-NH2 (peptide)
peptide: AICSRS[Phe(2,5-F2)]PPI[NMeC]IPD-NH2
modifications: disulfide 3-11; N-terminus assumed
SMILES: CC[C@H](C)[C@H](NC(=O)[C@H](C)N)C(=O)N[C@H]1CSSC[C@@H](C(=O)N[C@H](C(=O)N2CCC[C@H]2C(=O)N[C@@H](CC(=O)O)C(N)=O)[C@@H](C)CC)N(C)C(=O)[C@H]([C@@H](C)CC)NC(=O)[C@@H]2CCCN2C(=O)[C@@H]2CCCN2C(=O)[C@H](Cc2cc(F)ccc2F)NC(=O)[C@H](CO)NC(=O)[C@H](CCCNC(=N)N)NC(=O)[C@H](CO)NC1=O
B11: (Tranexamic)-IC+SRS-((tBu)A)-PPI-(Pen)+IP-(PEG1(10 atoms))-NH2 (peptide)
peptide: {Tranexamic″}-ICSRS[tBuAla]PPI[Pen]IP-{PEG2-NH2}
modifications: disulfide 2-10
SMILES: CC[C@H](C)[C@@H]1NC(=O)[C@@H]2CCCN2C(=O)[C@@H]2CCCN2C(=O)[C@H](CC(C)(C)C)NC(=O)[C@H](CO)NC(=O)[C@H](CCCNC(=N)N)NC(=O)[C@H](CO)NC(=O)[C@@H](NC(=O)[C@@H](NC(=O)[C@H]2CC[C@@H](CN)CC2)[C@@H](C)CC)CSSC(C)(C)[C@@H](C(=O)N[C@H](C(=O)N2CCC[C@H]2C(=O)NCCOCCOCCC(N)=O)[C@@H](C)CC)NC1=O
B12: (Orn)-IC+SRSLPPIC+I-NH2 (peptide)
peptide: [Orn]ICSRSLPPICI-NH2
modifications: disulfide 3-11; N-terminus assumed
SMILES: CC[C@H](C)[C@H](NC(=O)[C@@H]1CSSC[C@H](NC(=O)[C@@H](NC(=O)[C@@H](N)CCCN)[C@@H](C)CC)C(=O)N[C@@H](CO)C(=O)N[C@@H](CCCNC(=N)N)C(=O)N[C@@H](CO)C(=O)N[C@@H](CC(C)C)C(=O)N2CCC[C@H]2C(=O)N2CCC[C@H]2C(=O)N[C@@H]([C@@H](C)CC)C(=O)N1)C(N)=O
B13: aIC+SRS-((S)-(trifluoromethyl)-L-cysteine)-PPI-(Pen)+IP-NH2 (peptide)
peptide: [dA]ICSRS[X12]PPI[Pen]IP-NH2
modifications: disulfide 3-11; N-terminus assumed
SMILES: CC[C@H](C)[C@H](NC(=O)[C@@H](C)N)C(=O)N[C@H]1CSSC(C)(C)[C@@H](C(=O)N[C@H](C(=O)N2CCC[C@H]2C(N)=O)[C@@H](C)CC)NC(=O)[C@H]([C@@H](C)CC)NC(=O)[C@@H]2CCCN2C(=O)[C@@H]2CCCN2C(=O)[C@H](CSC(F)(F)F)NC(=O)[C@H](CO)NC(=O)[C@H](CCCNC(=N)N)NC(=O)[C@H](CO)NC1=O

Target: T1, Recombinant human MASP1 enzyme …
Assay: cell-based or functional assay

| human MASP1 IC50 | Binder |
| --- | --- |
| 9.3 nM | B1 |
| 7.2 nM | B2 |
| 6.9 nM | B3 |
| 7.3 nM | B4 |
| 6.6 nM | B5 |
| 7.4 nM | B6 |
| 6.5 nM | B7 |
| 7.2 nM | B8 |
| 6.9 nM | B9 |
| 7 nM | {2‑(3-Pyridyl)acetyl}-ICSRS[tBuAla]PPI[Pen]IP-NH2 (disulfide 2-10) [(2-(3-Pyridyl)acetic acid)-IC+SRS-((tBu)A)-PPI-(Pen)+IP-NH2] |
| 7.6 nM | B10 |
| 6.5 nM | B11 |
| 7.1 nM | [2‑(Cyclohexylamino)acetyl]ICSRS[tBuAla]PPI[Pen]IPD-NH2 (disulfide 3-11) [(2-(Cyclohexylamino)acetyl)-IC+SRS-((tBu)A)-PPI-(Pen)+IPD-NH2] |
| 7.8 nM | B12 |
| 7.3 nM | B13 |

Target: Recombinant human MASP2 enzyme (fragment corresponding to amino acids 297-686, C-terminal His Tag) (human, UniProt O00187 297-686)
Assay: cell-based or functional assay

Recombinant human MASP2 enzyme (fragment corresponding to amino acids 297-686, C-terminal His Tag), sequence (O00187 other isoform, or with tags, fused parts or gaps limits assumed): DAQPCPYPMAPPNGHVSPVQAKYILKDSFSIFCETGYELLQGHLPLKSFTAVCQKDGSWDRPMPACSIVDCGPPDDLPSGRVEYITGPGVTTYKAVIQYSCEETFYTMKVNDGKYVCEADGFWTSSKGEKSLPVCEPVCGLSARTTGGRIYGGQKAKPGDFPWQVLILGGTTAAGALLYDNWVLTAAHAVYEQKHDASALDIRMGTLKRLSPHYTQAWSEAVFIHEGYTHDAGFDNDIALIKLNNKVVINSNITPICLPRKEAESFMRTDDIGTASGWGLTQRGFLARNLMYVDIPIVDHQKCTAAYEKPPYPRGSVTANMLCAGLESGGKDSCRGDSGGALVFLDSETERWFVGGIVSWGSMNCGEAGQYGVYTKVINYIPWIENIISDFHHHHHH

| human MASP2 IC50 | Binder |
| --- | --- |
| 64 nM | B1 |
| 300 nM | B2 |
| 400 nM | B3 |
| 1700 nM | B4 |
| 120 nM | B5 |
| 260 nM | B6 |
| 140 nM | B7 |
| 190 nM | B8 |
| 49 nM | B9 |
| 8.5 nM | {2‑(3-Pyridyl)acetyl}-ICSRS[tBuAla]PPI[Pen]IP-NH2 (disulfide 2-10) [(2-(3-Pyridyl)acetic acid)-IC+SRS-((tBu)A)-PPI-(Pen)+IP-NH2] |
| 63 nM | B10 |
| 13 nM | B11 |
| 200 nM | [2‑(Cyclohexylamino)acetyl]ICSRS[tBuAla]PPI[Pen]IPD-NH2 (disulfide 3-11) [(2-(Cyclohexylamino)acetyl)-IC+SRS-((tBu)A)-PPI-(Pen)+IPD-NH2] |
| 190 nM | B12 |
| 19 nM | B13 |
